The supplement of paper PMC7877785
± gives the uncertainty stated by the source.

Experiment: self-splicing fitness, log relative to wild type (ln ratio); higher = more splicing; Tetrahymena group I intron in knt gene, E. coli kanamycin selection, DiMSum; sequences stand for … in CUCUCU…GGAGGGAAAAGUUAUCAGGCAUGCACCUGGUAGCUAGUCUUUAAACCAAUAGAUUGCAUCGGUUUAAAAGGCAAGACCGUCAAAUUGCGGGAAAGGGGUCAACAGCCGUUCAGUACCAAGUCUCAGGGGAAACUUUGAGAUGGCCUUGCAAAGGGUAUGGUAAUAAGCUGACGGACAUGGUCCUAACCACGCAGCCAAGUCCUAAGUCAACAGAUCUUCUGUUGAUAUGGAUGCAGUUCACAGACUAAAUGUCGGUCGGGGAAGAUGUAUUCUUCUCAUAAGAUAUAGUCGGACCUCUCCUUAAUGGGAGCUAGCGGAUGAAGUGAUGCAACACUGGAGCCGCUGGGAACUAAUUUGUAUGCGAAAGUAUAUUGAUUAGUUUUGGAGUACUCGUGGUCG
How it was run: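 Colonies from six replicate transformations of E. coli BL21(DE3) were pooled and amplicon-sequenced on an Illumina HiSeq 2500. The library placed an intron with all eight P1ex-region nucleotides randomised inside the knt kanamycin-resistance gene on pET-22b(+), and cells grew overnight at 37°C or 30°C on LB agar with or without 25 μg/mL kanamycin (plus 100 μg/mL carbenicillin, 50 μM IPTG, 0.2% rhamnose). Fitness is the DiMSum error-weighted combination of wild-type-normalised replicate fold changes, kanamycin versus none.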

Row | Sequence | self-splicing fitness (ln) (30 °C) | self-splicing fitness (ln) (37 °C)
1 | AGUAAGCAAUAUUACGUUGU | -3 ± 0.099 | -1.97 ± 0.12
2 | AGUCAGCAAUAUUACGAACA | -0.843 ± 0.076 | -0.406 ± 0.11
3 | AGUCAGCAAUAUUACGAAUU | -0.652 ± 0.064 | -0.509 ± 0.076
4 | AGUCAGCAAUAUUACGACGC | 0.144 ± 0.1 | 0.499 ± 0.13
5 | AGUCAGCAAUAUUACGAGAG | -2.88 ± 0.2 | -1.67 ± 0.18
6 | AGUCAGCAAUAUUACGAGCG | -0.195 ± 0.09 | -0.556 ± 0.1
7 | AGUCAGCAAUAUUACGAGGA | -2.97 ± 0.2 | -1.73 ± 0.16
8 | AGUCAGCAAUAUUACGAGUA | -2.3 ± 0.13 | -1.31 ± 0.1
9 | AGUCAGCAAUAUUACGAGUU | -1.9 ± 0.092 | -0.799 ± 0.077
10 | AGUCAGCAAUAUUACGAUCU | -0.19 ± 0.07 | 0.36 ± 0.09
11 | AGUCAGCAAUAUUACGCACG | -1.02 ± 0.12 | -0.646 ± 0.15
12 | AGUCAGCAAUAUUACGCCAC | -3.68 ± 0.18 | -3.11 ± 0.19
13 | AGUCAGCAAUAUUACGCCUG | -2.49 ± 0.16 | -0.867 ± 0.11
14 | AGUCAGCAAUAUUACGCGAA | -1.21 ± 0.17 | -0.704 ± 0.15
15 | AGUCAGCAAUAUUACGCGCC | -0.491 ± 0.1 | -0.228 ± 0.11
16 | AGUCAGCAAUAUUACGCUAA | -0.794 ± 0.083 | -0.99 ± 0.083
17 | AGUCAGCAAUAUUACGCUAC | -3.7 ± 0.24 | -4.03 ± 0.46
18 | AGUCAGCAAUAUUACGGAAU | -1.84 ± 0.084 | -0.425 ± 0.077
19 | AGUCAGCAAUAUUACGGACG | -0.173 ± 0.07 | 0.0506 ± 0.1
20 | AGUCAGCAAUAUUACGGCCG | -1.28 ± 0.11 | -0.527 ± 0.085
21 | AGUCAGCAAUAUUACGGCUU | – | -1.91 ± 0.29
22 | AGUCAGCAAUAUUACGGGGU | -4.54 ± 0.31 | -1.5 ± 0.15
23 | AGUCAGCAAUAUUACGGUAC | -3 ± 0.16 | -1.88 ± 0.21
24 | AGUCAGCAAUAUUACGGUGC | -1.68 ± 0.14 | -1.07 ± 0.19

Row | Sequence | self-splicing fitness (ln) (30 °C) | self-splicing fitness (ln) (37 °C)
25 | AGUCAGCAAUAUUACGGUUC | -2.98 ± 0.11 | -1.51 ± 0.11
26 | AGUCAGCAAUAUUACGUCCC | -1.52 ± 0.22 | 0.485 ± 0.27
27 | AGUCAGCAAUAUUACGUCUA | -0.83 ± 0.072 | -0.792 ± 0.071
28 | AGUCAGCAAUAUUACGUCUU | -0.994 ± 0.095 | -0.306 ± 0.11
29 | AGUCAGCAAUAUUACGUGCG | -0.277 ± 0.078 | -0.317 ± 0.088
30 | AGUCAGCAAUAUUACGUGGC | -2.31 ± 0.16 | -2.21 ± 0.15
31 | AGUCAGCAAUAUUACGUGUC | -2.18 ± 0.13 | -2.11 ± 0.19
32 | AGUCAGCAAUAUUACGUUAG | -3.63 ± 0.17 | -1.43 ± 0.12
33 | AGUCAGCAAUAUUACGUUCG | -1.9 ± 0.13 | -1.46 ± 0.15
34 | AGUCAGCAAUAUUACGUUUA | -2.23 ± 0.11 | -1.36 ± 0.099
35 | AGUGAGCAAUAUUACGAAAA | -3.16 ± 0.16 | -2.23 ± 0.23
36 | AGUGAGCAAUAUUACGAGUG | -3.75 ± 0.47 | -1.02 ± 0.24
37 | AGUGAGCAAUAUUACGAUAU | -3.14 ± 0.25 | -2.22 ± 0.28
38 | AGUGAGCAAUAUUACGAUGU | -3.64 ± 0.3 | -2.51 ± 0.25
39 | AGUGAGCAAUAUUACGCACA | -1.35 ± 0.1 | -0.91 ± 0.13
40 | AGUGAGCAAUAUUACGCCUG | -3.85 ± 0.29 | -2.38 ± 0.29
41 | AGUGAGCAAUAUUACGCUUU | -4.07 ± 0.32 | -3.04 ± 0.4
42 | AGUGAGCAAUAUUACGGCGG | -1.83 ± 0.31 | -2.29 ± 0.26
43 | AGUGAGCAAUAUUACGGCUU | -2.43 ± 0.17 | -1.72 ± 0.25
44 | AGUGAGCAAUAUUACGGGAG | -5.04 ± 0.41 | -2.38 ± 0.14
45 | AGUGAGCAAUAUUACGGGCA | -1.22 ± 0.3 | -1.73 ± 0.15
46 | AGUGAGCAAUAUUACGUACC | -0.317 ± 0.2 | -0.261 ± 0.28
47 | AGUGAGCAAUAUUACGUACG | -2.22 ± 0.16 | -1.3 ± 0.13
48 | AGUGAGCAAUAUUACGUGAU | -2.87 ± 0.26 | -2.74 ± 0.34

Row | Sequence | self-splicing fitness (ln) (30 °C) | self-splicing fitness (ln) (37 °C)
49 | AGUGAGCAAUAUUACGUGCG | -3.31 ± 0.33 | -2.08 ± 0.37
50 | AGUGAGCAAUAUUACGUGUG | -2.69 ± 0.21 | –
51 | AGUGAGCAAUAUUACGUUGA | -2.51 ± 0.13 | -2.75 ± 0.2
52 | AGUGAGCAAUAUUACGUUUA | -3.37 ± 0.45 | -2.04 ± 0.22
53 | AGUUAGCAAUAUUACGAAAU | -2.58 ± 0.13 | -1.62 ± 0.13
54 | AGUUAGCAAUAUUACGACAU | 0.112 ± 0.013 | 0.071 ± 0.033
55 | AGUUAGCAAUAUUACGACCC | -0.338 ± 0.19 | -0.0159 ± 0.49
56 | AGUUAGCAAUAUUACGAGAC | -3.11 ± 0.26 | -2.02 ± 0.27
57 | AGUUAGCAAUAUUACGAUGC | -1.75 ± 0.2 | -0.0326 ± 0.17
58 | AGUUAGCAAUAUUACGCAAU | -1.6 ± 0.18 | -2.52 ± 0.29
59 | AGUUAGCAAUAUUACGCACC | -1.35 ± 0.15 | -0.000166 ± 0.19
60 | AGUUAGCAAUAUUACGCCGA | -2.78 ± 0.46 | -1.71 ± 0.39
61 | AGUUAGCAAUAUUACGCCGC | -2.09 ± 0.38 | –
62 | AGUUAGCAAUAUUACGCCGU | -1.15 ± 0.099 | -0.939 ± 0.14
63 | AGUUAGCAAUAUUACGCUGU | -2.3 ± 0.14 | -2.01 ± 0.21
64 | AGUUAGCAAUAUUACGCUUU | -2.56 ± 0.13 | -1.09 ± 0.13
65 | AGUUAGCAAUAUUACGGAUU | -1.32 ± 0.14 | -0.035 ± 0.16
66 | AGUUAGCAAUAUUACGGCAG | -0.102 ± 0.13 | -1.48 ± 0.21
67 | AGUUAGCAAUAUUACGGGAG | -4.34 ± 0.39 | -1.65 ± 0.22
68 | AGUUAGCAAUAUUACGGGCC | -2.24 ± 0.21 | -1.61 ± 0.18
69 | AGUUAGCAAUAUUACGGGGG | -2.04 ± 0.27 | -1.38 ± 0.31
70 | AGUUAGCAAUAUUACGGGUA | -2.61 ± 0.39 | -0.0817 ± 0.2
71 | AGUUAGCAAUAUUACGGGUG | -3.86 ± 0.25 | -1.64 ± 0.21
72 | AGUUAGCAAUAUUACGUAAA | -2.85 ± 0.28 | -1.4 ± 0.26

Row | Sequence | self-splicing fitness (ln) (30 °C) | self-splicing fitness (ln) (37 °C)
73 | AUAAAGCAAUAUUACGAAGC | -4.43 ± 0.46 | -0.791 ± 0.29
74 | AUAAAGCAAUAUUACGACGA | -0.00868 ± 0.096 | 0.701 ± 0.12
75 | AUAAAGCAAUAUUACGAGGU | -3.99 ± 0.16 | -1.9 ± 0.21
76 | AUAAAGCAAUAUUACGAUAA | -0.405 ± 0.079 | -0.094 ± 0.094
77 | AUAAAGCAAUAUUACGAUAG | -2.82 ± 0.15 | -0.468 ± 0.14
78 | AUAAAGCAAUAUUACGAUGC | -1.39 ± 0.08 | -0.56 ± 0.12
79 | AUAAAGCAAUAUUACGCACG | -0.375 ± 0.083 | -0.0827 ± 0.11
80 | AUAAAGCAAUAUUACGCGUA | -0.873 ± 0.079 | -0.0465 ± 0.091
81 | AUAAAGCAAUAUUACGCGUU | -1.56 ± 0.084 | 0.0344 ± 0.1
82 | AUAAAGCAAUAUUACGCUGC | -3.15 ± 0.23 | -2.59 ± 0.33
83 | AUAAAGCAAUAUUACGCUGG | -1.43 ± 0.088 | -0.293 ± 0.13
84 | AUAAAGCAAUAUUACGGAAU | -1.16 ± 0.077 | -0.475 ± 0.1
85 | AUAAAGCAAUAUUACGGCAA | 0.284 ± 0.085 | -0.0372 ± 0.11
86 | AUAAAGCAAUAUUACGGCUG | 0.334 ± 0.069 | 0.483 ± 0.1
87 | AUAAAGCAAUAUUACGGGGC | -3.6 ± 0.26 | -1.97 ± 0.22
88 | AUAAAGCAAUAUUACGGUCC | -0.883 ± 0.14 | -0.458 ± 0.17
89 | AUAAAGCAAUAUUACGGUUA | 0.442 ± 0.078 | 0.534 ± 0.09
90 | AUAAAGCAAUAUUACGUACU | 0.123 ± 0.081 | 0.445 ± 0.095
91 | AUAAAGCAAUAUUACGUAGG | -2.93 ± 0.12 | -1.51 ± 0.15
92 | AUAAAGCAAUAUUACGUCCC | -0.201 ± 0.097 | -0.0866 ± 0.13
93 | AUAAAGCAAUAUUACGUUCA | 0.0367 ± 0.069 | 0.0639 ± 0.1
94 | AUACAGCAAUAUUACGAAAU | -1.44 ± 0.087 | -0.906 ± 0.11
95 | AUACAGCAAUAUUACGAGAA | -2.21 ± 0.25 | -1.79 ± 0.16
96 | AUACAGCAAUAUUACGAUUA | -1.18 ± 0.11 | -0.625 ± 0.11
